Source: US20170275666A1, “Methods for Preparing Rebaudioside I and Uses” (The Coca-Cola Company, priority 2014, published 2017)

Key:
Format in all cases: biochemical
[1] = Activity of in-vivo preparations of UGT91D2, transformation of Rubusoside to Stevioside; conditions: per mL of lysate, 30° C., pH 7.2
Procedure: Activity tests were performed at 5 mL scale with 1000 μL of lysate for the transformation of Rubusoside to Stevioside using 0.5 mM of substrate, 2.5 mM of UDP-Glucose and 3 mM MgCl2 in 50 mM Sodium Phosphate buffer at pH 7.2. Samples were taken and analyzed by HPLC.

[2] = Catalytic reaction with in-vivo produced UGT76G1, stevioside to rebaudioside A; conditions: 0.5 mM Stevioside, 2.5 mM UDP-glucose, thawed lysate, 30° C., HPLC (CAD)
Procedure: The total volume of the reaction was 5.0 mL with the following composition: 50 mM sodium phosphate buffer pH 7.2, 3 mM MgCl2, 2.5 mM UDP-glucose, 0.5 mM Stevioside and 500 μL of UGT76G1 thawed lysate. The reactions were run at 30° C. on an orbitary shaker at 135 rpm. For each sample, 460 μL of the reaction mixture was quenched with 40 μL of 2N H2SO4 and 420 μL of methanol/water (6/4). The samples were immediately centrifuged and kept at 10° C. before analysis by HPLC (CAD).

[3] = Directed evolution of UGT76G1, conversion of Rebaudioside D to Rebaudioside M (round 1); conditions: 0.5 mM Rebaudioside D, 2.5 mM UDP-Glucose, 100 μL fresh lysate, 30° C., pH 7.2
In short: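 UGT76G1 variants carrying 3-5 designed mutations were expressed in E. coli BL21(DE3) (pET30a+, 44 h at 20° C) and lysed. Lysate was reacted with 0.5 mM Reb D, 2.5 mM UDP-glucose, 3 mM MgCl2 in 50 mM phosphate pH 7.2 at 30° C; HPLC-CAD sampling at 2, 4, 7, 24 h gave conversion and initial rate.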

[4] = Directed evolution of UGT76G1, conversion of Rebaudioside D to Rebaudioside M (Round 2), normalized to Round1-Var94; conditions: round 2 clones; baseline clone Round1-Var94 defined as 100%; lysate, Rebaudioside D 0.5 mM, UDP-Glucose 2.5 mM, 30° C., pH 7.2, HPLC
From the text: A list of 53 mutations was established containing different identified positive mutations from the first round and new mutations obtained by DNA2.0 ProteinGPS™ strategy. This list of mutations was subsequently used to design 92 variant genes that contained each 3 different mutations. After codon-optimized for expression in E. coli the genes were synthesized, subcloned in the pET30a+ plasmid and used for transformation of E. coli BL21 (DE3) chemically competent cells. The obtained cells were grown in Petri-dishes on solid LB medium in the presence of Kanamycin. Suitable colonies were selected and allowed to grow in liquid LB medium in tubes. Glycerol was added to the suspension as cryoprotectant and 400 μL aliquots were stored at −20° C. and at −80° C.
These storage aliquots of E. coli BL21(DE3) containing the pET30a+_UGT76G1var plasmids were thawed and added to LBGKP medium (20 g/L Luria Broth Lennox; 50 mM PIPES buffer pH 7.00; 50 mM Phosphate buffer pH 7.00; 2.5 g/L glucose and 50 mg/L of Kanamycine). This culture was allowed to shake in a 96 microtiter plate at 30° C. for 8 h.
3.95 mL of production medium containing 60 g/L of Overnight Express™ Instant TB medium (Novagen®), 10 g/L of glycerol and 50 mg/L of Kanamycin was inoculated with 50 μL of above described culture. In a 48 deepwell plate the resulting culture was allowed to stir at 20° C. […]

B1: UGT91D2: UDP-glucosyltransferase (Genbank ACE87855.1) produced in E. coli, tested as lysate (protein, UniProt B3VI56 1-473, looked up)
UDP-glycosyltransferase 91D2: MATSDSIVDDRKQLHVATFPWLAFGHILPYLQLSKLIAEKGHKVSFLSTTRNIQRLSSHISPLINVVQLTLPRVQELPEDAEATTDVHPEDIPYLKKASDGLQPEVTRFLEQHSPDWIIYDYTHYWLPSIAASLGISRAHFSVTTPWAIAYMGPSADAMINGSDGRTTVEDLTTPPKWFPFPTKVCWRKHDLARLVPYKAPGISDGYRMGLVLKGSDCLLSKCYHEFGTQWLPLLETLHQVPVVPVGLLPPEVPGDEKDETWVSIKKWLDGKQKGSVVYVALGSEVLVSQTEVVELALGLELSGLPFVWAYRKPKGPAKSDSVELPDGFVERTRDRGLVWTSWAPQLRILSHESVCGFLTHCGSGSIVEGLMFGHPLIMLPIFGDQPLNARLLEDKQVGIEIPRNEEDGCLTKESVARSLRSVVVEKEGEIYKANARELSKIYNDTKVEKEYVSQFVDYLEKNTRAVAIDHES
modifications: E. coli lysate
notes: UDP-glucosyltransferase (Genbank ACE87855.1) produced in E. coli, tested as lysate
With B1 the “Transformation activity Rubusoside to Stevioside” value ([1]; plasmid pET30a+, expression strain ArcticExpress (DE3)) was 21 mU mL^−1, the “Transformation activity Rubusoside to Stevioside” value ([1]; plasmid pET30a+, expression strain Tuner (DE3)) was 28 mU mL^−1 and the “Transformation activity Rubusoside to Stevioside” value ([1]; plasmid pMAL, expression strain ArcticExpress) was 60 mU mL^−1. For the same molecule, the “Transformation activity Rubusoside to Stevioside” value ([1]; plasmid pMAL, expression strain BL21) was 9 mU mL^−1.

B2: UGT76G1: UDP-glycosyltransferase from Stevia rebaudiana (Genbank AAR06912.1), in-vivo produced lysate (protein, UniProt Q6VAB4 1-458, looked up)
UDP-glycosyltransferase 76G1: MENKTETTVRRRRRIILFPVPFQGHINPILQLANVLYSKGFSITIFHTNFNKPKTSNYPHFTFRFILDNDPQDERISNLPTHGPLAGMRIPIINEHGADELRRELELLMLASEEDEEVSCLITDALWYFAQSVADSLNLRRLVLMTSSLFNFHAHVSLPQFDELGYLDPDDKTRLEEQASGFPMLKVKDIKSAYSNWQILKEILGKMIKQTKASSGVIWNSFKELEESELETVIREIPAPSFLIPLPKHLTASSSSLLDHDRTVFQWLDQQPPSSVLYVSFGSTSEVDEKDFLEIARGLVDSKQSFLWVVRPGFVKGSTWVEPLPDGFLGERGRIVKWVPQQEVLAHGAIGAFWTHSGWNSTLESVCEGVPMIFSDFGLDQPLNARYMSDVLKVGVYLENGWERGEIANAIRRVMVDEEGEYIRQNARVLKQKADVSLMKGGSSYESLESLVSYISSL
modifications: cell lysate
notes: UDP-glycosyltransferase from Stevia rebaudiana (Genbank AAR06912.1), in-vivo produced lysate
With B2 the “conversion of stevioside to rebaudioside A” value [2] was “almost complete conversion”.

B3: UGT76G1var94: UGT76G1 variant, mutations Q266E_P272A_R334K_G348P_L379G; most active round 1 clone (protein, UniProt Q6VAB4 1-458, looked up, variant Q266E P272A R334K G348P L379G)
UDP-glycosyltransferase 76G1: MENKTETTVRRRRRIILFPVPFQGHINPILQLANVLYSKGFSITIFHTNFNKPKTSNYPHFTFRFILDNDPQDERISNLPTHGPLAGMRIPIINEHGADELRRELELLMLASEEDEEVSCLITDALWYFAQSVADSLNLRRLVLMTSSLFNFHAHVSLPQFDELGYLDPDDKTRLEEQASGFPMLKVKDIKSAYSNWQILKEILGKMIKQTKASSGVIWNSFKELEESELETVIREIPAPSFLIPLPKHLTASSSSLLDHDRTVFEWLDQQAPSSVLYVSFGSTSEVDEKDFLEIARGLVDSKQSFLWVVRPGFVKGSTWVEPLPDGFLGERGKIVKWVPQQEVLAHPAIGAFWTHSGWNSTLESVCEGVPMIFSDFGGDQPLNARYMSDVLKVGVYLENGWERGEIANAIRRVMVDEEGEYIRQNARVLKQKADVSLMKGGSSYESLESLVSYISSL
For B3, the “Conversion Reb D to Reb M after 24 h (%)” value [3] was 72.0%, the “initial rate (Reb M area/min)” value [3] was 7.9E+07 Reb M area/min and the “Normalized conversion Reb D to Reb M after 22 h.” value [4] was 100%. For the same molecule, the “Normalized initial rate (0-4 h)” value [4] was 100%.
